The target of experiment [1] is T1, human ASGR1 extracellular domain (hASGR1 ECD) (human, UniProt P07306 62-291, biotinylated (His-Avi tag)).
T1 construct: His-Avi tag at the N-terminus, biotinylated for BLI; also called human ASGR1 ECD
T1 sequence: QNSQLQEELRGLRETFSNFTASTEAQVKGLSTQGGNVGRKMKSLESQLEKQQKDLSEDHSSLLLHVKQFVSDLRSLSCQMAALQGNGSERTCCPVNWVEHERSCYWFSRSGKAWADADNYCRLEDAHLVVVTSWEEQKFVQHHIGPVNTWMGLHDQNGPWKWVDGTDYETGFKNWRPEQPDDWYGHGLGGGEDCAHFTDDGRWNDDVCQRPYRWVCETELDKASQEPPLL
The experiment in a line: BLI, Fab on hASGR1. A general note: Biolayer interferometry detects binding as a change in optical thickness at a sensor tip.

The target in experiment [2] is T2, human ASGR2 extracellular domain (hASGR2 ECD) (human, UniProt P07307 86-311, biotinylated (His/Avi tag)).
T2 construct: Cloned with a His/Avi tag
T2 sequence: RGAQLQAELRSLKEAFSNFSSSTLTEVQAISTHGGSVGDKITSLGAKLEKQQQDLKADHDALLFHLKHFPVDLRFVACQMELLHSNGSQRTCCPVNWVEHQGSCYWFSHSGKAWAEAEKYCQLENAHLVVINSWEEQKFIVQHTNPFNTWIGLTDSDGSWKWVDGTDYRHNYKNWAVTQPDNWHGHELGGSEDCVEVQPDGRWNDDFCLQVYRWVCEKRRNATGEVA
The experiment can be described thus: BLI, Fab on hASGR2.

The target in experiment [3] is T3, mouse ASGR1 extracellular domain (mASGR1 ECD) (mouse, biotinylated (His-Avi tag)).
T3 construct: His-Avi tag at the C-terminus, biotinylated; also called murine ASGR1; mouse ASGR1 (Q61-N284)
T3 chain: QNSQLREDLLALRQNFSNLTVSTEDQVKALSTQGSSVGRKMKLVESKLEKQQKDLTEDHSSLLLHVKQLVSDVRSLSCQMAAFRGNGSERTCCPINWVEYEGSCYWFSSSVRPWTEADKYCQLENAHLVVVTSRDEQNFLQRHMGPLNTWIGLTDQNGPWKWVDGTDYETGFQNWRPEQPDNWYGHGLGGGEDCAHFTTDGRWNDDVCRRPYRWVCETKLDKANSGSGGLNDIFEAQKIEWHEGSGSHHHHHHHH
The experiment in a line: BLI (Octet), Fab on biotinylated ASGR1 ECD, curve model fitting; Kd only in FIG. 9A. How it is done:
(§1) Affinity measurement: Binding kinetics of the RSPO-derived proteins to LGRS, RNF43, or ZNRF3, and binding of the anti-ASGR Fabs to human and/or mouse ASGR1 were determined by bio-layer interferometry (BLI) using Octet Red 96 (PALL ForteBio, Fremont, CA) instruments at 30° C., 1000 rpm with either streptavidin (SA) or anti-hIgG Fc capture (AHC) biosensors. […] Following capture of ECDs of RNF43, ZNRF3 or LGRS, the biosensors were dipped into wells containing the relevant test molecules at 7 different concentrations in running buffer plus a well with only running buffer as a reference channel. KD was determined by steady-state analysis based on the average responses between 140 to 145 seconds of association phase, for binding to LGRS, RNF43, and ZNRF3. For the binding to ASGR, KD was determined by curve model fitting using the Octet® Red data analysis software (Fortebio)

Experiment [4] has as its target T1, human ASGR1 extracellular domain …. The experiment is described as above. How it is done: as §1
Experiment [5] concerns the target T4, Fc portion of human IgG1-fused LGR5-ECD (R&D systems) (human, UniProt O75473 22-557, limits assumed).
T4 construct: extracellular domain; Bought reagent; also called LGRS; recombinant LGR5 protein; not shown: Fc portion of human IgG1
T4 sequence (looked up): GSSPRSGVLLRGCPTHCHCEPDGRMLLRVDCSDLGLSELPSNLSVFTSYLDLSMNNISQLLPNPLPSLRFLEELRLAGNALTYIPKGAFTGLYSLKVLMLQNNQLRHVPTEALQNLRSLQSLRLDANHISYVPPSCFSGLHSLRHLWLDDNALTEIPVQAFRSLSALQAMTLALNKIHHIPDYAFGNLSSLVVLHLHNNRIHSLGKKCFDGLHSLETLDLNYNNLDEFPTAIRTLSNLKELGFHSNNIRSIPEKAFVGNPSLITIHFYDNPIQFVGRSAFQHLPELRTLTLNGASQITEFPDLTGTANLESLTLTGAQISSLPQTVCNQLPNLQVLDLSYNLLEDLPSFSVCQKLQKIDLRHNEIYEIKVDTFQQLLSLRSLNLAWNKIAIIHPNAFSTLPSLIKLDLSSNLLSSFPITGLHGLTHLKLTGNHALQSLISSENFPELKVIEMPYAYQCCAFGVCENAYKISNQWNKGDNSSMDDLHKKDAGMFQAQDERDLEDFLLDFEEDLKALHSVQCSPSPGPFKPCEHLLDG
The experiment can be described thus: BLI (Octet), LGR5-ECD-Fc on AHC sensor. The protocol: as §1

In experiment [6] the target is T5, human ZNRF3 extracellular domain (hZNRF3 ECD) (human, UniProt Q9ULT6 56-219, biotinylated (His-Avi tag)).
T5 construct: Expressed with a His-Avi tag at the N-terminus and biotinylated; also called ZRNF3
T5 sequence: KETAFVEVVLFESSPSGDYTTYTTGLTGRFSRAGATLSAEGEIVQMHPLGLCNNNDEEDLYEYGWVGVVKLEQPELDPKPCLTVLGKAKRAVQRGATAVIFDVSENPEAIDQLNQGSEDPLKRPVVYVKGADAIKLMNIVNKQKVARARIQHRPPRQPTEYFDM
The experiment in a line: BLI (Octet), biotinylated ZNRF3 ECD on SA sensor. How it is done:
as §1

The target of experiment [7] is T6, human RNF43 extracellular domain (hRNF43 ECD) (human, UniProt Q68DV7 44-197, biotinylated (His-Avi tag)).
T6 construct: Expressed with a His-Avi tag at the N-terminus and biotinylated; also called human RNF3 (Q44-D198)
T6 sequence: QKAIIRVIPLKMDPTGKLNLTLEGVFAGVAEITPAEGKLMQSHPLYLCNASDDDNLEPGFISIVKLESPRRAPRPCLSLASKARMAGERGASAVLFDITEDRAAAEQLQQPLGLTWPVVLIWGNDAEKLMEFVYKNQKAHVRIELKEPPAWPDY
The experiment can be described thus: BLI (Octet), biotinylated RNF43 ECD on SA sensor. How it is done:
as §1

The text below walks through data of patent publication US20210380678A1 (SURROZEN OPERATING, published 2021).

B1: LP1-8M24 Fab (Fab, V domains shown)
VH: QVQLQQSGAELARPGASVKLSCKASGYTFTNYGINWVKQRTGQGLEWIGEIFPRSDNTFYNEKFKGKATLTADKSSTTAYMELRSLTSEDSAVYFCARKGRDYGTSHYFDYWGQGTTLTVSS
VL: DIQMTQSPASLSVSVGETVTITCRISENIYSNLAWYQQKQGKSPHLLVYAAINLADGVPSRFSGSGSGTQFSLKINSLQSEDFGSYYCQHFWGTPFTFGSGTKLEIK
notes: Tested as Fab, from hybridoma development
Turning to B1, the binding result in experiment [1] is recorded as “binds”.

B2: Abv-10B8 Fab (Fab, V domains shown)
VH: DVKLVESGEGLVKPGGSLKLSCAASGFTFSSYAMSWVRQTPEKRLEWVAYISSGGDYIYYVDTVKGRFTISRDNARNTLYLQMSSLKSEDTAVYYCTREGTGGMDYWGQGTSVTVSS
VL: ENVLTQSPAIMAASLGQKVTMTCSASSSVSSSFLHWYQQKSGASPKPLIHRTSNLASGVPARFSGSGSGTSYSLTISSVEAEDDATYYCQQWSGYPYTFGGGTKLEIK
notes: as for B1
Regarding B2, the binding result in experiment [2] was “binds”.

B3: anti-ASGR1 Fab (Fab, V domains shown)
VH: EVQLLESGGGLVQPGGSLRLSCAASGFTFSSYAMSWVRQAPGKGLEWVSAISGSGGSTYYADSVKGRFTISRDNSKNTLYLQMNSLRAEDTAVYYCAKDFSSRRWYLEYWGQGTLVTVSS
VL: DIELTQDPAVSVALGQTVRITCQGDSLRSYYASWYQQKPGQAPVLVIYGKNNRPSGIPDRFSGSSSGNTASLTITGAQAEDEADYYCNSLERIGYLSYVFGGGTKLTVLG
notes: Made with a (His)6 tag at the C-terminus of the human IgG1 CH1 domain after a 5-mer linker (GSGSG); also called αASGR1 antibody (e.g., RO-01) expressed as a Fab
With B3, the binding result in experiment [3] and in experiment [4] was “binds” each time.

B4: αGFP-RSPO2-RA (anti-GFP, RSPO2 (F105R/F109A)) (other)
chain: QVQLVESGGGLVQPGGSLRLSCAASGFTFSRYGMHWVRQAPGKGLEWVSGISSIGSNTYYADSVKGRFTISRDNSKNTLYLQMNSLRAEDTAVYYCARWYKTYIDVWGQGTLVTVSSGGGGSGGGGSGGGGSDIELTQPPSVSVAPGQTARISCSGDNLGKKYVYWYQQKPGQAPVLVIYGDDERPSGIPERFSGSNSGNTATLTISGTQAEDEADYYCASYDSSHILIVFGGGTKLTVLGSGGSNPICKGCLSCSKDNGCSRCQQKLFFFLRREGMRQYGECLHSCPSGYYGHRAPDMNRCARCRIENCDSCRSKDACTKCKVGFYLHRGRCFDECPDGFAPLEETMECVEGGDYKDDDDKGSHHHHHHHH
notes: scFv against GFP fused to the RSPO2 Fu1-Fu2 fragment with F105R/F109A; FLAG-His tag
For the molecule B4, the results for the binding result in experiment [5], in experiment [6] and in experiment [7] were “no binding”, “binds” and “binds”, respectively.

B5: LP1-2I13 Fab (Fab, V domains shown)
VH: EVQLVESGGGLVKPGGSRKLSCAASGFTFSDYGMHWVRQAPEKGLEWVAYISSGSSTIYYADTVKGRFTISRDNAKNTLFLQMTSLRSEDTAMYYCSRKGGFGDYEKSYAMDYWGQGTSVTVSS
VL: DIQMTQSPASLSASVGETVTITCRASENIYSYLVWYQQKQGKSPQLLVYNAKTLAEGVPSRFSGSGSGTQFSLKINSLQPEDFGSYYCQHHYGTWTFGGGIKLEIK
notes: as for B1
With B5, the binding result in experiment [1] is “binds”.

B6: Abv-3D11 Fab (Fab, V domains shown)
VH: EVQLVESGGGLVQPKGSLKLSCAASGFSFNTYAMNWVRQAPGKGLEWVARIRSKSNNYATYYADSVKDRFTISRDDSESMLYLQMNNLKTEDTAMYYCVRPRYDYWYFDVWGTGTTVTVSS
VL: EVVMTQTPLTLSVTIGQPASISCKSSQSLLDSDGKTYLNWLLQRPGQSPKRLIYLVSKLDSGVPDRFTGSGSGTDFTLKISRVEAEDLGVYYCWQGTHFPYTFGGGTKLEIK
notes: as for B1
Turning to B6, the binding result in experiment [2] is recorded as “binds”.
